Patent publication US20170056521A1

Biological target: human HLA-A2 (human)
Test: single colony ELISA; soluble scFv supernatant on coated HLA-A2 (0.5 µg/well), anti-E-tag-HRP detection

OD450: 1.3 OD450
B1: scFv clone 3E10 (scFv)
scFv: DIQMTQSPSSLSASVGDRVTITCRASQDVFFFVAWYQQKPGKAPKLLIYGPPGLYSGVPSRFSGSGSGTDFTLTISSLQPEDFATYYCQQYFSFPITFGQGTKVEIKRGGGGSIEGRSGGGGSEVQLVESGGGLVQPGGSLRLSCAASGFTISNGGIHWVRQAPGKGLEWVASIWPSGGYTSYADSVKGRFTISADTSKNTAYLQMNSLRAEDTAVYYCARFGVNYHGIMDYWGQGTLVTVSS
